# Data: publication PMC3941056 (The Journal of Cell Biology, 2014)
# Target: the molecule itself
# Assay: fluorescence correlation spectroscopy
protein,measurement,value
"HsSAS-6–[F131E] with a C-terminal GFP (natural protein, human, UniProt Q6UVJ0 1-657, looked up) MSQVLFHQLVPLQVKCKDCEERRVSIRMSIELQSVSNPVHRKDLVIRLTDDTDPFFLYNLVISEEDFQSLKFQQGLLVDFLAFPQKFIDLLQQCTQEHAKEIPRFLLQLVSPAAILDNSPAFLNVVETNPEKHLTHLSLKLLPGNDVEIKKFLAGCLKCSKEEKLSLMQSLDDATKQLDFTRKTLAEKKQELDKLRNEWASHTAALTNKHSQELTNEKEKALQAQVQYQQQHEQQKKDLEILHQQNIHQLQNRLSELEAANKDLTERKYKGDSTIRELKAKLSGVEEELQRTKQEVLSLRRENSTLDVECHEKEKHVNQLQTKVAVLEQEIKDKDQLVLRTKEAFDTIQEQKVVLEENGEKNQVQLGKLEATIKSLSAELLKANEIIKKLQGDLKTLMGKLKLKNTVTIQQEKLLAEKEEKLQKEQKELQDVGQSLRIKEQEVCKLQEQLEATVKKLEESKQLLKNNEKLITWLNKELNENQLVRKQDVLGPSTTPPAHSSSNTIRSGISPNLNVVDGRLTYPTCGIGYPVSSAFAFQNTFPHSISAKNTSHPGSGTKVQFNLQFTKPNASLGDVQSGATISMPCSTDKENGENVGLESKYLKKREDSIPLRGLSQNLFSNSDHQRDGTLGALHTSSKPTALPSASSAYFPGQLPNS",brightness relative to monomeric GFP,~1.6 fold
same,stoichiometry N,2
